Results reported in patent US20110059078A1 (AstraZeneca / MedImmune, published 2011).

Legend:
[1] = biological target: human interferon alpha receptor 1 (IFNAR1), on cells (human) (UniProt P17181); test: cell-based or functional assay
[2] = biological target: T1, human interferon alpha receptor 1 (IFNAR1), on cells (human, UniProt P17181 28-557); test: IHC of human monocytes with biotinylated antibody
T1 construct: whole, on cells; For PBMCs, monocytes and THP-1 cells it names only the cells
T1 sequence (looked up): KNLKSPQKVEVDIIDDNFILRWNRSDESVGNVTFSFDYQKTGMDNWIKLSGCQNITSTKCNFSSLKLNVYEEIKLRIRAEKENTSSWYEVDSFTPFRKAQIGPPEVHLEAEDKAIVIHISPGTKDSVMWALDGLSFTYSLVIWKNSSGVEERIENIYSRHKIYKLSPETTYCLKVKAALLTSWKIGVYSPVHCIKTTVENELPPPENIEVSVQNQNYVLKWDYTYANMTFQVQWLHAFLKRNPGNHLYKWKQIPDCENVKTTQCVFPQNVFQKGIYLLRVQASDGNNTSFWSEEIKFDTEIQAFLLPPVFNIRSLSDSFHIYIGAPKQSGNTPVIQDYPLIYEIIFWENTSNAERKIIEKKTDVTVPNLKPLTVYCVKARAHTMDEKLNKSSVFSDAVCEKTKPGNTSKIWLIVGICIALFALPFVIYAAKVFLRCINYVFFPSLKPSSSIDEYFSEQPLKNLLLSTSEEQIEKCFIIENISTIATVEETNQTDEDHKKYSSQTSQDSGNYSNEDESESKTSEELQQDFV
Experimental: Human Monocytes: A cell suspension was smeared/spotted directly onto slides. The slides were allowed to dry overnight and then soaked in Acetone for 10 min and allowed to air dry. Prior to use, slides were dipped into 10% neutral buffered formalin for 10 secs and washed 3× in buffer (1×TBS with 0.01% Tween20).
Slide staining: After washing in buffer, slides were treated to quench endogenous peroxidases by treatment with a solution of Glucose Oxidase (1 U/ml, Sigma G0543), B-D(+) Glucose (10 mM, Sigma G5250), Sodium Azide (1 mM, Sigma, S8032) for 1 hour at room temperature. Slides were then rinsed in wash buffer (1×TBS with 0.01% Tween 20). Slides were placed in a protein block solution (1×PBS pH7.2, 0.5% casein(N-Z amine, Sigma CO626), 1% BSA (Sigma A7906), 1.5% Normal Goat serum (Jackson Labs #005-000-001) for 30 min at room temperature. Biotinylated antibody (see above) was applied to the slides by dilution into the protein block solution. Incubation of the slides with the biotinylated antibody was performed at room temperature for 2 hours. Slides were rinsed 3× in wash buffer (1×TBS, 0.01% Tween 20). Antibody detection was performed using a Vectastain Kit (Vector Laboratories). Slides were washed and counterstained with hematoxylin. Slides were dehydrated and mounted with coverslips prior to viewing.

[3] = biological target: T1, human interferon alpha receptor 1 …; test: cell-based or functional assay
[4] = biological target: T1, human interferon alpha receptor 1 …; test: cell-based or functional assay; remark: listed apart in the source
ovalbumin [5] = biological target: T2, ovalbumin (UniProt P01012 2-386); test: BIAcore, ovalbumin control, antibody at 333 nM, reference-subtracted
T2 construct: Control protein; also called soluble ovalbumin
T2 sequence (looked up): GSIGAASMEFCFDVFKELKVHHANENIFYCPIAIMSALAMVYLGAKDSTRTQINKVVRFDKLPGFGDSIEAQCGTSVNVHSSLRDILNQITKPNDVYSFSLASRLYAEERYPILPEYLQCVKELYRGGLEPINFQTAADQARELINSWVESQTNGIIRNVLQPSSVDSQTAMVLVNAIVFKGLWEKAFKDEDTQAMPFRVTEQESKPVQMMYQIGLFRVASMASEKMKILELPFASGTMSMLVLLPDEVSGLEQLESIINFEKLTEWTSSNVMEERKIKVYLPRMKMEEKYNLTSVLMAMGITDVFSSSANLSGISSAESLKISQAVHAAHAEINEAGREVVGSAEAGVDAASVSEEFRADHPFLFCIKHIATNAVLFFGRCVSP
Experimental: All experiments were performed on a BIAcore 3000 instrument (BIAcore, Inc., Uppsala, Sweden). […] Separately, a blank surface was also prepared on each chip using the identical protocol, minus the protein. This blank surface was used as a reference cell throughout the experiment, and served to correct for both non-specific binding and certain housekeeping artifacts.

[6] = biological target: T3, FcγRIIIA variant 158F (low affinity) with Flag tag (UniProt P08637 17-208, limits assumed); test: ELISA, antibody coated on the plate at 50 µg/ml, Flag-tagged FcγRIIIA titrated, biotin anti-Flag and avidin-HRP
T3 construct: not shown: Flag tag
T3 sequence (P08637 17-208 limits assumed, change not shown): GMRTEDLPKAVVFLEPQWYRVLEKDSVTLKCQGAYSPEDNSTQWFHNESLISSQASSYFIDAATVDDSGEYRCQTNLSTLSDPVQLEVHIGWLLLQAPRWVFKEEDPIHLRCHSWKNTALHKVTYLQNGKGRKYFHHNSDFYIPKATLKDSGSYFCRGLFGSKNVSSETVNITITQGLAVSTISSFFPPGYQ
Experimental: (§1) The plate was washed one hour later and incubated with biotin conjugated anti Flag antibody (Sigma) at 2 μg/ml. After washing 25 μl of HRP conjugated Avidin was added to each well. The unbound materials were removed by washing one hour after incubation. The binding signal was detected with the substrate TMB.

[7] = biological target: T4, FcγRIIIA variant 158V (high affinity) with Flag tag (UniProt P08637 17-208); test: as above
T4 construct: also called FcγRIIIA-10 158V; not shown: Flag tag
T4 sequence (P08637 other isoform, or with tags, fused parts or gaps mutant): as the sequence (P08637 17-208 limits assumed, change not shown) above, with F160V counted along it
Experimental: as §1

[8] = biological target: T1, human interferon alpha receptor 1 …; test: europium-labelled antibody binding to HEK 293F cells, Kd from binding curves (GraphPad Prism)
Experimental: Methods: 200,000 HEK 293F cells were seeded in a round bottom, 96-well plate using 50 μL RPMI 1640 media supplemented with 10% FBS. […] 25 μL of europium conjugated, serially diluted antibody was then added to appropriate wells and cells and antibodies were agitated gently at room temperature for 1-2 hours. After binding incubation, 150 μL of cell media was added to all wells and plates were spun at 1200 rpm for 5 minutes at room temperature. Plates were quickly decanted and 250 μL cell media was added to all wells. Spins and washes were repeated for a total of 3 washes. Cells were then resuspended in 100 μL cell media. 50 μL of resuspended cells were transferred to 200 μL of DELPHIA enhancement solution (PerkinElmer) in a DELPHIA yellow microtiter plate and Europium emission was measured on a Victor2 Multilabel reader (PerkinElmer). Signal was measured in cps and Kd values and Bₘₐₓ values were generated using GraphPad Prism 4 analysis software.

ovalbumin [9] = biological target: T2, ovalbumin; test: BIAcore, control surface, FcγRI injected at 20 nM, reference-subtracted
Experimental: Methods: All experiments were performed on a BIAcore 3000 instrument (BIAcore, Inc., Uppsala, Sweden). In a typical experiment 1 μM solutions of 9D4 IgGs were used to immobilize anywhere from ˜7000 RUs−˜11,000 RUs of protein onto CM5 sensor chip surfaces using a standard amino coupling protocol (BIAcore, Inc.). Separately, a blank surface was also prepared on each chip using the identical protocol, minus the protein. This blank surface was used as a reference cell throughout the experiment, and served to correct for both non-specific binding and certain housekeeping artifacts.

## anti-IFNAR1 antibody MDX-1333
[1]
  IC50, HiL3 ISRE-luciferase reporter assay, neutralization of Human Leukocyte IFN: 1.12 µg/mL
  IC50, HiL3 ISRE-luciferase reporter assay, neutralization of IFNα 2b: 0.646 ng/mL
  IC50, HiL3 ISRE-luciferase reporter assay, neutralization of IFNα10: 0.0988 µg/mL
  IC50, HiL3 ISRE-luciferase reporter assay, neutralization of IFNβ: 19 µg/mL
  IC50, HiL3 ISRE-luciferase reporter assay, neutralization of IFNω: 5.32 µg/mL
  IC50, luciferase reporter assay, Leukocyte IFN signaling: 0.04 nM

B1: anti-IFNAR1 antibody 4G5 (antibody, V domains shown)
VH: QVQLQQWGAGLLKPSETLSLTCAVYGGSFSNYYWSWIRQPPGKGLEWIGEIILSGSTNYNPSLKSRVTISVDTSKNQFSLNLTSVTAADTAVYYCARESKWGYYFDSWGQGTLVTVSS
VL: AIQLTQSPSSLSASVGDRVTITCRATQDISIALVWYQQKPGKAPELLIYDASGLGSGVPSRFSGSGSGTDFTLTISSLQPEDFATYYCQQFNSYPYTFGQGTKLEIK
notes: Biotinylated for IHC
[2]
  binding result: binds

B2: modified anti-IFNAR1 antibody 9D4-TM (Triple Mutant) (antibody)
VH: EVQLVQSGAEVKKPGESLKISCKGSGYIFTNYWIAWVRQMPGKGLESMGIIYPGDSDIRYSPSFQGQVTISADKSITTAYLQWSSLKASDTAMYYCARHDIEGFDYWGRGTLVTVSSASTKGPSVFPLAPSSKSTSGGTAALGCLVKDYFPEPVTVSWNSGALTSGVHTFPAVLQSSGLYSLSSVVTVPSSSLGTQTYICNVNHKPSNTKVDKRVEPKSCDKTHTCPPCPAPEFEGGPSVFLFPPKPKDTLMISRTPEVTCVVVDVSHEDPEVKFNWYVDGVEVHNAKTKPREEQYNSTYRVVSVLTVLHQDWLNGKEYKCKVSNKALPASIEKTISKAKGQPREPQVYTLPPSREEMTKNQVSLTCLVKGFYPSDIAVEWESNGQPENNYKTTPPVLDSDGSFFLYSKLTVDKSRWQQGNVFSCSVMHEALHNHYTQKSLSLSPGK
VL: EIVLTQSPGTLSLSPGERATLSCRASQSVSSSFFAWYQQKPGQAPRLLIYGASSRATGIPDRLSGSGSGTDFTLTITRLEPEDFAVYYCQQYDSSAITFGQGTRLEIKRTVAAPSVFIFPPSDEQLKSGTASVVCLLNNFYPREAKVQWKVDNALQSGNSQESVTEQDSKDSTYSLSSTLTLSKADYEKHKVYACEVTHQGLSSPVTKSFNRGEC
notes: Labelled with europium, Alexa647 or biotin in some assays; also called 9D-TM; Alexa647-9D4-TM; copies: 2 + 2
[3]
  IC50, luciferase reporter assay, inhibition of IFN-α1 activity: 4 pM
  IC50, luciferase reporter assay, inhibition of IFN-α2b activity: 0.07 nM
  IC50, luciferase reporter assay, inhibition of IFN-α4b activity: 0.02 nM
  IC50, luciferase reporter assay, inhibition of IFN-α6 activity: 0.04 nM
  IC50, luciferase reporter assay, inhibition of IFN-α7 activity: 0.04 nM
  IC50, luciferase reporter assay, inhibition of IFN-α8 activity: 0.03 nM
  IC50, luciferase reporter assay, inhibition of IFN-α10 activity: 0.01 nM
  IC50, luciferase reporter assay, inhibition of IFN-α14 activity: 0.02 nM
  IC50, luciferase reporter assay, inhibition of IFN-α16 activity: 0.02 nM
  IC50, luciferase reporter assay, inhibition of IFN-α17 activity: 0.04 nM
  IC50, luciferase reporter assay, inhibition of IFN-α21 activity: 0.01 nM
  IC50, luciferase reporter assay, inhibition of IFN-β1 activity: 6.8 nM
  IC50, luciferase reporter assay, inhibition of IFN-ω activity: 0.1 nM
  IC50, luciferase reporter assay, inhibition of Leukocyte Interferon activity: 0.01 nM
[4]
  IC50, HiL3 ISRE-luciferase reporter assay, neutralization of Human Leukocyte IFN: 0.0212 µg/mL
  IC50, HiL3 ISRE-luciferase reporter assay, neutralization of IFNα 2b: 0.828 ng/mL
  IC50, HiL3 ISRE-luciferase reporter assay, neutralization of IFNα10: 4.29 ng/mL
  IC50, HiL3 ISRE-luciferase reporter assay, neutralization of IFNβ: 0.261 µg/mL
  IC50, HiL3 ISRE-luciferase reporter assay, neutralization of IFNω: 0.0142 µg/mL
  IC50, PIL-5 ISRE luciferase reporter assay, neutralization of Type I interferons in SLE patient plasma: 0.04 nM
  IC50, inhibition of SLE plasma induced CD38 and CD123 expression on human monocytes (flow cytometry): 0.02 to 0.06 nM
  IC50, luciferase reporter assay, Leukocyte IFN signaling: 0.02 nM
  IC50, suppression of CD38 expression on cells stimulated with leukocyte-IFN: 25 ng/mL
  IC50, suppression of CD86 expression on cells stimulated with leukocyte-IFN: 26 ng/mL
  IC50, suppression of CD123 expression on cells stimulated with leukocyte-IFN: 10 ng/mL
Ovalbumin [5]
  binding result: no binding
[6]
  binding result: no binding (tested: 4.7 Log ng/ml (50 µg/ml by paragraph 350))
[7]
  binding result: no binding (tested: 4.7 Log ng/ml (50 µg/ml by paragraph 350))
[8]
  Kd: 0.03 nM

B3: human FcγRI (CD64) (receptor, UniProt P12314 16-288, looked up)
chain: QVDTTKAVITLQPPWVSVFQEETVTLHCEVLHLPGSSSTQWFLNGTATQTSTPSYRITSASVNDSGEYRCQRGLSGRSDPIQLEIHRGWLLLQVSSRVFTEGEPLALRCHAWKDKLVYNVLYYRNGKAFKFFHWNSNLTILKTNISHNGTYHCSGMGKHRYTSAGISVTVKELFPAPVLNASVTSPLLEGNLVTLSCETKLLLQRPGLQLYFSFYMGSKTLRGRNTSSEYQILTARREDSGLYWCEAATEDGNVLKRSPELELQVLGLQLPTP
Ovalbumin [9]
  binding result: no binding

B4: anti-IFNAR1 antibody 9D4 (parental, unmodified) (antibody, V domains shown)
VH: EVQLVQSGAEVKKPGESLKISCKGSGYIFTNYWIAWVRQMPGKGLESMGIIYPGDSDIRYSPSFQGQVTISADKSITTAYLQWSSLKASDTAMYYCARHDIEGFDYWGRGTLVTVSS
VL: EIVLTQSPGTLSLSPGERATLSCRASQSVSSSFFAWYQQKPGQAPRLLIYGASSRATGIPDRLSGSGSGTDFTLTITRLEPEDFAVYYCQQYDSSAITFGQGTRLEIK
notes: Whole IgG with unmodified Fc; the TM variant was engineered on human IgG1 and IgG1 isotype controls were used; Biotinylated in some ELISAs; also called 9D4-WT; 9D4WT
[4]
  IC50, HiL3 ISRE-luciferase reporter assay, neutralization of Human Leukocyte IFN: 0.021 µg/mL
  IC50, HiL3 ISRE-luciferase reporter assay, neutralization of IFNα 2b: 2.79 ng/mL
  IC50, HiL3 ISRE-luciferase reporter assay, neutralization of IFNα10: 8.35 ng/mL
  IC50, HiL3 ISRE-luciferase reporter assay, neutralization of IFNβ: 0.74 µg/mL
  IC50, HiL3 ISRE-luciferase reporter assay, neutralization of IFNω: 0.0101 µg/mL
  IC50, luciferase reporter assay, Leukocyte IFN signaling: 0.01 nM
  IC50, suppression of CD38 expression on cells stimulated with leukocyte-IFN: 4.3 ng/mL
  IC50, suppression of CD86 expression on cells stimulated with leukocyte-IFN: 20 ng/mL
  IC50, suppression of CD123 expression on cells stimulated with leukocyte-IFN: 7 ng/mL
Ovalbumin [5]
  binding result: no binding
[8]
  Kd: 0.06 nM

B5: modified anti-IFNAR1 antibody 9D4-DM (Double Mutant) (antibody, human IgG4, V domains shown)
VH: EVQLVQSGAEVKKPGESLKISCKGSGYIFTNYWIAWVRQMPGKGLESMGIIYPGDSDIRYSPSFQGQVTISADKSITTAYLQWSSLKASDTAMYYCARHDIEGFDYWGRGTLVTVSS
VL: EIVLTQSPGTLSLSPGERATLSCRASQSVSSSFFAWYQQKPGQAPRLLIYGASSRATGIPDRLSGSGSGTDFTLTITRLEPEDFAVYYCQQYDSSAITFGQGTRLEIK
notes: Biotinylated in some ELISAs
[4]
  IC50, luciferase reporter assay, Leukocyte IFN signaling: 0.01 nM
  IC50, suppression of CD38 expression on cells stimulated with leukocyte-IFN: 40 ng/mL
  IC50, suppression of CD86 expression on cells stimulated with leukocyte-IFN: 20 ng/mL
  IC50, suppression of CD123 expression on cells stimulated with leukocyte-IFN: 21 ng/mL
[8]
  Kd: 0.06 nM
